The values that follow come from patent US20170165373A1 (Amgen, published 2017).

Assay [1] deals with T1, human BCMA (huBCMA), full length, on cells (human, UniProt Q02223 1-184).
T1 chain: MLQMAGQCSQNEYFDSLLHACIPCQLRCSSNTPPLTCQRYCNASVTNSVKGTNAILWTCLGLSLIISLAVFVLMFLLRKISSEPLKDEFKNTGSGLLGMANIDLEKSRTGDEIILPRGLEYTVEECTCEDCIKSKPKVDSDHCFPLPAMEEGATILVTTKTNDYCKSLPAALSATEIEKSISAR
Put plainly: cell-based or functional assay.

Assay [2] concerns the target T1, human BCMA (huBCMA), full length, on …. Put plainly: FACS, H929 cells. Background: In flow cytometry, cells or beads pass a laser one at a time.
Assay [3] has the same target. Put plainly: FACS, H929 cells.
For assay [4] the target is unchanged. As to the kind of experiment: FACS, H929 cells.
For assay [5], the target named is T2, recombinant soluble human BCMA (Biacore analyte of Example 2) (human, UniProt Q02223 1-54).
T2 construct: also called rhu BCMA; rsol.hu BCMA
T2 sequence: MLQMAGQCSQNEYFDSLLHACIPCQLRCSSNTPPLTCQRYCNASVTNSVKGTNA
As to the kind of experiment: Biacore 3000 SPR, antibody captured on anti-human IgG, rhu BCMA as analyte, 25 C. (In SPR one partner is held on a chip, and binding of the other changes the refractive index at the surface.)

Assay [6] deals with T3, clipped form of the rhuBCMA fusion protein, SEQ ID NO:356 (human).
T3 chain: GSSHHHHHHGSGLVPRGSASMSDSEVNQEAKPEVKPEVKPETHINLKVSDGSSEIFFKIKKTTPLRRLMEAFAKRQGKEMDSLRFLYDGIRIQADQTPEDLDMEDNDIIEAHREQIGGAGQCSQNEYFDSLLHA
Put plainly: LC/MS (ESI-TOF, reduced sample) of the SEC-isolated 2A1 + SumoBCMA sample.

Assay [7] concerns the target T4, clipped form of the rhuBCMA fusion protein, SEQ ID NO:357 (human).
T4 chain: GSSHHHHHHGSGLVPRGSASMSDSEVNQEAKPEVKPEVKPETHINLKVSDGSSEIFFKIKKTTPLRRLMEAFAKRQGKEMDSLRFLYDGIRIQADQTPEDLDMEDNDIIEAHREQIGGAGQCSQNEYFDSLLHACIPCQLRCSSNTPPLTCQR
Described as above.

Assay [8] addresses T5, clipped form of the rhuBCMA fusion protein, SEQ ID NO:354 (human).
T5 construct: also called Peak A
T5 chain: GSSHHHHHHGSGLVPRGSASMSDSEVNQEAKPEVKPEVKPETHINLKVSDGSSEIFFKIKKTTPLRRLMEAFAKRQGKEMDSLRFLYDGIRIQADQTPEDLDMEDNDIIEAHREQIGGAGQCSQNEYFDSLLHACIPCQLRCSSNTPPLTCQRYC
The assay is described as above.

Assay [9] deals with T6, clipped form of the rhuBCMA fusion protein, SEQ ID NO:355 (human).
T6 chain: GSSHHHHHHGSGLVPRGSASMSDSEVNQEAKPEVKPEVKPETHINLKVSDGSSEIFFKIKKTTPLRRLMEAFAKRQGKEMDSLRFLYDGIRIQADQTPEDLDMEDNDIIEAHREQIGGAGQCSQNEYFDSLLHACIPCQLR
Described as above.

Assay [10] has as its target T1, human BCMA (huBCMA), full length, on …. As to the kind of experiment: FACS equilibrium titration on 293T cells transiently transfected with human BCMA (relative FACS affinity).
Assay [11] concerns the target T7, cynomolgus BCMA, on transiently transfected 293T cells (cynomolgus (Macaca fascicularis), UniProt Q02223 1-184 (human entry)).
T7 construct: also called cyno BCMA
Put plainly: FACS equilibrium titration on 293T cells transiently transfected with cynomolgus BCMA (relative FACS affinity).

For assay [12], the target named is T8, rhuBCMA fusion protein (6xHis::Sumo::huBCMA(aa 5-51)::GGS::G3::Avi) (human).
T8 construct: Monomeric tagged fusion; the entry holds the tags, Sumo and the BCMA part; also called Sumo-BCMA; SumoBCMA
T8 chain: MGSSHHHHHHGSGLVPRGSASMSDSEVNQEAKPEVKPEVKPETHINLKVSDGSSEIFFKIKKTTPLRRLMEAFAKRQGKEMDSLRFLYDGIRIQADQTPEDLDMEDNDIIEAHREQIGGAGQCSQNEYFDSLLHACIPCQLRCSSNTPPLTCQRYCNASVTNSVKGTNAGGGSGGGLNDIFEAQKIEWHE
Put plainly: size exclusion chromatography (S200 column, PBS, UV trace), 500 ug antibody incubated with 500 ug sumoBCMA. Background: Size exclusion chromatography separates by hydrodynamic size, large species first.

Assay [13] concerns the target T9, TACI, full length, on transiently transfected cells (human, UniProt O14836 1-293).
T9 construct: whole, on cells; also called huTACI
T9 sequence (looked up): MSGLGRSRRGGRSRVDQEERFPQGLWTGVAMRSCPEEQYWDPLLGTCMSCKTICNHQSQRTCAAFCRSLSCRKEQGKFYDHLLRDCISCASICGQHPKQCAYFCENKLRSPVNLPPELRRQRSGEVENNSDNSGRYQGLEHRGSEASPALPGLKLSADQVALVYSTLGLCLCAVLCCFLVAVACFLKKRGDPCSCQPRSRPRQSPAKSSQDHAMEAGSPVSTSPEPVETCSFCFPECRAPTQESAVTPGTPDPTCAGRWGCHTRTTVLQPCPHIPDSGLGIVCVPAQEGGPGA
Put plainly: FACS on cells transiently transfected with the full-length receptor; positive if MFI is two times the negative control.

Assay [14] concerns the target T10, BAFF-R, full length, on transiently transfected cells (human, UniProt Q96RJ3 1-184).
T10 construct: whole, on cells; also called huBAFF-R
T10 sequence (looked up): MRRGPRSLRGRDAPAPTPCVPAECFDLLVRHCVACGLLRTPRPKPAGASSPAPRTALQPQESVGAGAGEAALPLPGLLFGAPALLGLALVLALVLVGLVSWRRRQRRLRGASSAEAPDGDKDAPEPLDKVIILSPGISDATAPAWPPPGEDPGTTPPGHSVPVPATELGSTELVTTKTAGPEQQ
The assay is described as above.

The target in assay [15] is T1, human BCMA (huBCMA), full length, on …. As to the kind of experiment: FACS, H929 cells.
Assay [16] shares this target. Put plainly: FACS on H929 myeloma cells.
Assay [17] has the same target. Put plainly: FACS.
The target in assay [18] is T7, cynomolgus BCMA, on transiently …. Put plainly: FACS.
Assay [19] concerns the target T9, TACI, full length, on transiently …. As to the kind of experiment: FACS.
The target of assay [20] is T10, BAFF-R, full length, on transiently …. As to the kind of experiment: FACS.
Assay [21] addresses T2, recombinant soluble human BCMA (Biacore …). As to the kind of experiment: Biacore 3000 SPR, antibody captured on anti-human IgG, rhu BCMA as analyte, steady state fit to a 1:1 isotherm.

Like-named read-outs stand apart in the source and are kept apart here.

T7 sequence (Q02223 other isoform, or with tags, fused parts or gaps): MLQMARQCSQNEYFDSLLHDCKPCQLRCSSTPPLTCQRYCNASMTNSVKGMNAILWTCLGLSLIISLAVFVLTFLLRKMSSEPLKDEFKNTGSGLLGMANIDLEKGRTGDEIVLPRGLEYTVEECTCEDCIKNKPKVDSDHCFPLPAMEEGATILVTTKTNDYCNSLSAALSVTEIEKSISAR

B1: 2A1 (parental fully human anti-huBCMA monoclonal antibody) (antibody, human IgG1, lambda, V domains shown)
VH: EVQLVESGGGLVKPGRSLRLSCTASGFTFGDYALSWFRQAPGKGLEWVGVSRSKAYGGTTDYAASVKGRFTISRDDSKSFAYLQMNSLKTEDTAVYYCCSSGYSSGWTPFDYWGQGTLVTVSS
VL: not shown
notes: also called Ab-5; Ab-18
The EC50 (read off the curve) is the concentration giving half of the maximal effect. Usually Kd stands for a measure of binding affinity in units of concentration. On to B1, for which the “ADCC EC50, calcein-AM labelled H929 target cells” value in assay [1] was 0.011 mg/L. For the same molecule, the “EC50 (read off the curve)” value is approximately 0.2 mg/L in [2], approximately 0.1 mg/L in assay [3] and approximately 0.3 mg/L in [4]. The Kd was determined as 0.027 nM in assay [5], 1.1 nM in assay [10] and 0.905 nM in assay [11]. Besides, the binding result is “binds” in [6]; “binds” in assay [7]; “binds” in assay [8]; “binds” in assay [9]; “binds” in [12]; “no binding” in [13]. The binding result in [14] is “no binding”.

B2: 2A1CV4 (antibody, human IgG1, lambda, V domains shown)
VH: EVQLVESGGGLVKPGGSLRLSCAASGFTFGDYALSWFRQAPGKGLEWVGVSRSKAYGGTTDYAASVKGRFTISRDDSKSFAYLQMNSLKTEDTAVYYCASSGYSSGWTPFDYWGQGTLVTVSS
VL: not shown
notes: IgG1 covariance mutein of 2A1; also called Ab-38; P61055.3
For the molecule B2, the binding result in assay [15] is “binds”.

B3: 2A1 Covariance 19 (2A1_K14Q + R17G + T24A + G32S + F44V + G56S + D84N + F88T + T98A + C107A + S108K; 2A1_E144K VL) (antibody, human IgG1, lambda, V domains shown)
VH: EVQLVESGGGLVQPGGSLRLSCAASGFTFSDYALSWVRQAPGKGLEWVSVSRSKAYGGTTDYAASVKGRFTISRDNSKSTAYLQMNSLKAEDTAVYYCAKSGYSSGWTPFDYWGQGTLVTVSS
VL: not shown
notes: also called Ab-37
For B3, the binding result in [16] is listed as “binds”.

B4: 1E1 (fully human anti-huBCMA monoclonal antibody) (antibody, IgG1, V domains shown)
VH: QVQLVQSGAEVKKPGASVKVSCKASGYTFTGHYIHWVRQAPGQGLEWMGWIYPNSGGTNYAQKFQGRVTMTRDTSISTAYMELSRLRSDDSAVYYCAREGMVTGDYYYYRMDVWGQGTTVIVSS
VL: QPVLTQPPSASASLGASVTLTCSLSSGYSNYKVDWYQQRPGKGPRFVMRVGIGGIVGSKGDGIPDRFSVLGSGLNRYLTIKNIQEEDESDFHCGADHGSGNNFVYVFGTGTKVTVLG
notes: Recombinantly cloned as IgG1; also called Ab-4
As for B4, the “ADCC EC50, calcein-AM labelled H929 target cells” value in [1] is 0.076 mg/L. In addition, the Kd was 0.113 nM in assay [5], 2.8 nM in [10] and more than 100 nM in assay [11]. For the same molecule, the binding result in [13] and in assay [14] was “no binding” throughout.

B5: 33D4 (antibody, V domains shown)
VH: QVQLQQSGPGLVKPSQTLSLTCAISGDSVSSTNVAWNWIRQSPSRGLEWLGGTFYRSNWYNDYAISVKSRITINPDTSKNQFSLQLNSVTPEDTAVYYCARFYSWNSYFDYWGQGILVTVSS
VL: QPVLTQPPSASASLGASVTLTCTLSSGYSNYKVDWYQHRPGKGPRFVMRVGTGGIVGSKGDGIPDRFSVLGSGLNRYLTIKNIQEEDESDFHCGADHGSETNFVYVFGTGTKVTVLG
notes: Tested as purified hybridoma IgG2 or IgG4; also called Ab-14; 33D4.1
As for B5, the MFI worked out at 89900 in assay [17], 19400 in assay [18], 261 in assay [19] and 723 in assay [20]. The binding result in assay [19] and in assay [20] was “no binding” each time.

B6: 11F12 (fully human anti-huBCMA monoclonal antibody) (antibody, V domains shown)
VH: QVQLVESGGGVVQPGRSLRLSCAASGFTFSSYGLHWVRQAPGKGLEWVALISYDGSNKYYADSVKGRFTISRDNSKNTLYLQMNSLRAEDTAVYYCWYSSSWTPLDYWGQGTLVTVSS
VL: DIQMTQSPSSLSASVGDRVTITCRASQGIRNDLGWYQQKPGKAPKRLIYAASSLQSGVPSRFSGSGSGTEFTLTISSLQPEDFATYYCLQYYSYPLTFGGGTKVEIKR
notes: also called Ab-6; 11F12_LC#1
In the case of B6, the equilibrium dissociation constant (Kd) in [21] is 36.1 nM.
